Assay results: the nanobody polyreactivity screen of Harvey et al. (2022)

Assay: yeast display, Sf9 membrane polyspecificity reagent, FACS + sequencing; frameworks hold sequencing errors
Summary of the method: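 Nanobodies came from a synthetic yeast display library in Saccharomyces cerevisiae BJ5465, induced with galactose for 36–48 hours and stained for 1 hour at 4 °C with 10% biotinylated, detergent-solubilized Sf9 membrane reagent. Cells were enriched on streptavidin microbeads and then FACS-sorted, with low and high (top ~1%) gates set on anti-HA fluorescence for expression and streptavidin fluorescence for reagent binding. Each polyreactivity label reflects the gate a clone came from. Genes were amplified by colony PCR, sequenced by MiSeq 2 × 250 and filtered by CDR length.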

QVKLVESGGGLVQAGGSLRLSCAAYGFIISYYAMGWYRQQPGKEREFVAVISRGGNTYYADSVKGRFTISRDNAKNTVYLQMNSLKPVDTAVYYCAASVPPYYPRQRHDGYDYWVQGTQVTVSS
polyreactivity (PSR sort gate): low polyreactivity

QVQLVESGGGLVQAGGSLRLSCAASGRIFVCYAMGLYRQAPGKERELVAAISSSCGSTYYADSVKGRFTISRDKAKNTVYLQMNSLKPEDTAVYYCNTHQRSRMDYWVQGTQVTVSS
polyreactivity (PSR sort gate): low polyreactivity

QVQLVESGGGLVQAGGSLRLSCAASGSTFLYYAMGWYRQAPGKERELVAAIDSGGSTYYADSVKGRFTISRDNAKNTVYLQMNSLKPEDTAVYYCNADFADHWPPNGPGALDYWGQGTQVTVSS
polyreactivity (PSR sort gate): low polyreactivity

QVQLVESGGGLVQAGGSLRLSCAASGRTFAYNTMGWYRQAPGKEREFVAAIDSGDSTYYADSVKGRFTISRDNAKNTVYLQMNSLKPEDTAVYYCAARRYYGYDYWGQGTLVTVSS
polyreactivity (PSR sort gate): high polyreactivity

QVQLVESGGGLVQAGGSLRLSCAASGRIFASYGMGWYRQAPGKETELVATINSSGGSTYYADSVKGRFTISRDNAKNTVYLQLKSLKPEDTAVYYSNARHGYYKYGYWGQGTQVTVSS
polyreactivity (PSR sort gate): low polyreactivity

QVQLVESGGGLVQAGGSLRLSCAASGYIFTSYAMGWYRQAPGKERELVATITTGGSTYYADSVKGRFTISRDNAKNTVYLQMNSLKPEDTAVYYCNAVLHGWYDYWGQGTQVTVSS
polyreactivity (PSR sort gate): low polyreactivity

QVQLVESGGGLVQAGGSLRLSCAASGSIFRIYAMGWYRQAPGKERELVAAIDSSGGSTYYADSVKGRFTISRDNAKNTVYFQMNSLKPEDTAVYYCNATFGYPFVDYDDYWGQGTQVTVSS
polyreactivity (PSR sort gate): low polyreactivity

QVQLVESGGGLVQAGGSLRLSCAASGYTFSPNDMGWYRQAPGKERELVAAITSSVGSTYYADSVKGRFTISRDNAKNTVYLQLNSLKPEDTAVYYCNKQDSSYYISGGGDYDYWGQGTQVTVSS
polyreactivity (PSR sort gate): low polyreactivity

QVQLVESGGGLVQAGGSLRLSCAASGFILDFNAMGWYRQAPGKERELVAAISISGVSTYYADSVKGRFTISRDNAKNTVYLQMNSLKPEDTAVYYCAAAQDAAVYWRPGGYDYWGQGTQVTVSS
polyreactivity (PSR sort gate): low polyreactivity

QVQLVESGGGLVQPRGSLRLSCAASGSILGHYAMGWYRQAPGKERELVAAISWRGGTTYYADSVKGRFTISRDNAKNTVYLQMNSLKPEDTAVYYCNADVWVYPYDYWGQGTQVTVSS
polyreactivity (PSR sort gate): low polyreactivity

QVQLVESGGGLVQAGGSLLLSCAASGIIFGTNALGWYRQAPGKERELVAAITWSGGNTTYADSVKGRFTISRDNAKNTVYLQMNSLKPEDTAVYYCAADFTRAGDYDYWGQGTQVTVSS
polyreactivity (PSR sort gate): low polyreactivity

QVQLVESGGGLVQAGGSLRLSCAASGSTFGRNAMGWYRQAPGKERELVAASNWSDGSTHYADSVKGRFTISRDNAKNTVYLQMNSLKPEDTAVYYCAADAWSWPVDYNYWGQGTQVTVSS
polyreactivity (PSR sort gate): low polyreactivity

QVQLVESGGGLVQAGGSLRLSCAASGFTFAWYTMGWYRQAPGKERELVAGIDWSGGSTYYADSVKGRFTISRDNAKNTVYLQMNSLKPEDTAVYYCNAAGLYYVYPGYDYWGQGTQVTVSS
polyreactivity (PSR sort gate): high polyreactivity

QVQLVESGGGLVQAGGSLRLSCAASGNTFYSYAMGWYRQAPGKERELVAAITWGGRTKYADSVKGRFTISRDNAKNTVYLQMNSLKPEDTAVDYCAARLYHGKTKYDYWGQGTQVTVSS
polyreactivity (PSR sort gate): high polyreactivity

QVQLVESGGGLVQAGGSLRLSCAASGSTSVVNARGWSRPAPGKERELVAAISTGGASTYYADSVKGRYTISRDNAKNTVYLQMNSLKPEDTAVYYCAADLGYEYDYWGQCTQVTVSS
polyreactivity (PSR sort gate): high polyreactivity

QVQLVESGGGLVQAGGSLRLICSASGSIFPQYAMVSYRPEPGKERALFAAISYSGGRSYYADSVKGRFTISRDIAKNTVYLQMNSLKTEYTGVYYWAARVKRGIPTYGKCYYAFGDWGQGTQVTVSS
polyreactivity (PSR sort gate): high polyreactivity

QVQLVESGGGLVQAGGSLRLSCAASGFTFKYNAMGWYRQAPGKERELVAGITLRGGSTYYADSVKGRFTISRDNAKNTVYLQMNSLKPEDTAVYYCGAAASNWREYWYWGQGTQVTVSS
polyreactivity (PSR sort gate): low polyreactivity

QVLLQESGGGLVQAGGSLRLCCAASGYISGDQFMGWYRQAPGKEREFVAGIGNGTNTNYADSVKGRFTTSRDNAKNTVYLQMNSLKPEDTAVYYCAADPSDGSTLAYWGQGTQVTVSS
polyreactivity (PSR sort gate): high polyreactivity

QVQLVESGGGLVQAGGSLRLSCAASGLIFTYYAMGWYRQAPGKERELVAAINYSGGSTYYADSVKGRFTISRDNAKNTVYLQMNSLKPEDTAVYYCAARRVTQTEGPMGYWGQGTQVTVSS
polyreactivity (PSR sort gate): low polyreactivity

QVQLVESGGGIVQAGGRLRLSCAASGMIFYFYALGWYRPAPGKERELVAAITSGARTYYADSVKGRFTISRDNAKNTVYLQINSLKPEDTAVYYCAADVKRDRVWGGDYWGQGTQVTVSS
polyreactivity (PSR sort gate): low polyreactivity

QVQLVESGGGLGQAGGSLRLSCAASGGTFYYYAMGWSRQAPGKERELVAAITESGGSTYYGDSVKGRFTISRDNAKNTVNLQMNSLKPEDTAVYYCAAETYYGDDGYWGQGTQVTVSS
polyreactivity (PSR sort gate): low polyreactivity

QVQLVESGGGLVQAGGSLRLSCAASGIIFFHYAMGWYRQAPGKERELVAAITWSGGSTYYADSVKGRFTISRDNAKNTVYLKMNSLKPEDSAVYYCNAVLHRRLYDYWGQGPQVTVSS
polyreactivity (PSR sort gate): high polyreactivity

QVQLVESGGGLVQAGGSLRLSCAASVRTQPRYAMGRYRQAPGKERDLVAAISRSGGSTHYADSVKGRFTISRDNAKNTVYFQMNSLKPEDTAVYYCATQRYPYRFYAFQYYYWGQGTQVTVSS
polyreactivity (PSR sort gate): high polyreactivity

QVQLVESGGGLVQAGGSLRLSCAASGSIFQKNAMGWYRQAPGKERELVATIRWSGGRTYYADSVKGRFTISRDNAKNTVYLQMNSLKPEDTAVYYCNAGYKGDYDYWGQGTQVTVSS
polyreactivity (PSR sort gate): high polyreactivity

QVQLVESGGGLVQAGGSLRLSCAASGRTFYRSAMGWYRQAPGKERELVAAISSSGGRTYYADSVKGRFTISRDYAKNTVYLQMNSLKPEDTAVYYCNAAPSWSTSFDSWGQGTQVTVSS
polyreactivity (PSR sort gate): high polyreactivity

QVQLVESGGGLVQAGGSLRLSCAASGRTIYQYAMGWYRQAPGKERELVAAISRGGSTNYADSLKGRFTISRDNAKNTVFLQMHSLKPEDTAVYYCASWYKFLSLKRLYERDYWGQGTQVTVSS
polyreactivity (PSR sort gate): high polyreactivity

QVQLVESGGGLVQAGGSLRLSCAASGSTFVYNAMGWYRPAPGKERELVAAISARTGRTYYADSVKGRFTISRDNAKNTVYLQMNSLKPEDTAVYYCAAGLIVGRFLRYDYWGQGTQVTVSS
polyreactivity (PSR sort gate): high polyreactivity

QVQLVESGGGLVQAVGSLRLSCAASGGIITSSAMGWYRLAPGKEWELVAAITGIGGRTYYADSVKGRFTISRDNAKNTVYLQMNSLKPEDTAVYYCKAAYTYVTAWYYYCGQGTQVTVSS
polyreactivity (PSR sort gate): high polyreactivity

QVQLGESGGGLVQAGGSLRLSCAASGRTFHGYAMGWYRQAPGKERELVARINWSDGRTYYADSVKGRFTISRDNAKNTVYLQMNSLKPEDTAVYYCAADKTVSYAPAWYYYWGQGTQVTVSS
polyreactivity (PSR sort gate): low polyreactivity

QVHLVESGGGLVQAGGSLRLSCAASGSTFLPNAMGWYRQAPGKERELVAAITNGGGTNYADSVKGRFTISRDNAKNTVYLQMYSLKPEDTAVYYCNADSTYFGGHDYWGPGTQVTVSS
polyreactivity (PSR sort gate): low polyreactivity

QVQLVESGGGLVQAGGSLRLSCAASGSTFWRYAMGWYRQAPGKERELVAAITSSGDRTYYADSVKGRFTISRDNAKNTVYLQMNSLKPEDTAVYYCAAALWSSRGYYYAYYYWGQGTQVTVSS
polyreactivity (PSR sort gate): high polyreactivity

QVQLVESVGGLVQAGGSLRLSSAASGSIFAYNAMGSYRQAPGKERELVAAITSDDSTNNADSVKGRFTISRDNAKNTVYLQMNSLKPEDTAVYYCAAYYYYTYIIGYDYWGQGTQVTVSS
polyreactivity (PSR sort gate): low polyreactivity

QVQLVESGGGLVQAGGSLRLSCAASGLILPYYAMGWYRQAPGTERELVAAISRTAGRTSYADSVKGRFTISRDNAKNTVYLQMNSLKPEDTAVYYCAAVGQSGGRRYDYWGQGTQVTVSS
polyreactivity (PSR sort gate): high polyreactivity

QVQLVESGGGLVQAGGSLRLSCAASGSIFGYYARGWYRQASGKESELVADITSSGSTYYADSVKGRFTISRDNAKNTVYLQMNSLKPEDTAVYYCAADQYFLGSIDGFEYWGQRTQVTVSS
polyreactivity (PSR sort gate): low polyreactivity

QVQLVESGGGLVQAGGSLRLSCAASGRTFDGYAMGWYRQAPGKERELVAAISTSGVRTYYADSVKGRFTISRDNAKNTVYLQMNSLKPEDTAVYYCAADWTGGYEYWGQGTQVTVSS
polyreactivity (PSR sort gate): high polyreactivity

QVQLVESGGGLVQAGGSLRLSCAASGSTFVGNAMGWYRQAPGKERELVAAITGGGGSTYYADSVKGRFTISRDNAKNTVYLQMNSLKPEDTAVYYCNKKLQRRSWYDYWGQGTQVTVSS
polyreactivity (PSR sort gate): low polyreactivity

QVQLVESGGGLVQAGGSLRLSCAASGSIYGDYVMGWYRQAPGKERELVAAINRGGYTYYADSVKGRFTISRDNAKNTVYLQMNSLKPEDTAVYYCAAGYPSWYYGYPYDSWGQGTQVTVSS
polyreactivity (PSR sort gate): low polyreactivity

QVQLVESRGGLVQAGGSLRLSCAASGFTFYSNAMGWYRQAPGKERELVAAIAKRGGSTYYADSVKGRFTISRDNAKNTVYLQMISLKPEDTAVYYCNKDYYARKYDYWGQGTLVTVSS
polyreactivity (PSR sort gate): high polyreactivity

QVQLVESGGGLVQAGGRLRLSCAASGRTFTYNAMGWYRQAPGKERELFAAISNTGSTYYADSLKGRFTISRDNAKNTVYLQMNSLKPEDTAVYYCAADRAEFRQDDDPGESNYWGQGTQVTVSS
polyreactivity (PSR sort gate): low polyreactivity

KVQLVESGGGLVQAGGSLRITCAASGSNQASNAMGWYRQAPGKERELVAAIRVSGASTYYADSVKGRFTISRDNAKNTVYLQMKSLKPEYNAVYYCAADYQFGVIYYYWGQGTQVTLSS
polyreactivity (PSR sort gate): low polyreactivity

QVQLVESGGGLVQAGGSLRLSCAASGRICVTYAIGRYRQAPGKERELVAASTYSGGSTYYADSVKGRFTISRDNAKNTVYLQMNSLKPEDTAVYYCGWTYHYHRESWGQGTQVTVSS
polyreactivity (PSR sort gate): low polyreactivity

QVHLVESWAGLVQAGGSLRLSGAASGTNVMGWYRQAPGKERELDAAISGSGGSTYYADSVKGRFTISRDNAKNTVYLQMNSLKPEDTAVYYCAADSIQYTARPYDYWGQGTQVTVSS
polyreactivity (PSR sort gate): low polyreactivity

QVQLVESGGGLVQAGGSLRLSCAASGFIFYSYAMGWYRQAPGKERELVAAIDWDDGTTYYADSVKGRFTISRDNAKNTVYLQMNSLNPEDTAVYYCAAESYYGAYDYWGQGTQVTVSS
polyreactivity (PSR sort gate): high polyreactivity
